Reference: publication PMC4385471 (Molecular cell, 2015)

T1: Maltose Binding Protein (MBP) tagged IpaJΔ50 (Shigella flexneri, UniProt Q54150 51-259)
T1 sequence: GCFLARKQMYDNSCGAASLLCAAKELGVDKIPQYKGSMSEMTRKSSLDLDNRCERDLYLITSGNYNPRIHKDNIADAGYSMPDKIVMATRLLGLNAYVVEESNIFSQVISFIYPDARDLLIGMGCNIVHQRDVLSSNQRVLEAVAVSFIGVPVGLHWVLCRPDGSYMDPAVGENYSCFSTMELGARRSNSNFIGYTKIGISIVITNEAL

B1: Glutathione S-transferase (GST) tagged ARF1ΔN17 (domain or fragment)
chain: not shown

How the values were obtained:
[1] = target: T1, Maltose Binding Protein (MBP) tagged …; experiment: pull-down
[2] = target: B1; experiment: homologous competition assay
[3] = target: T1, Maltose Binding Protein (MBP) tagged …; experiment: homologous competition assay

Binder | binding result [1] | other results
GST-ARF5Δ17 (domain or fragment) not shown | binds | 
MBP-GGA1(76-215) (domain or fragment, UniProt Q9UJY5 76-215, looked up) SCGKRFHDEVGKFRFLNELIKVVSPKYLGSRTSEKVKNKILELLYSWTVGLPEEVKIAEAYQMLKKQGIVKSDPKLPDDTTFPLPPPRPKNVIFEDEEKSKMLARLLKSSHPEDLRAANKLIKEMVQEDQKRMEKISKRV |  | Kd [2]: 1810 nM
B1 |  | Kd [3]: 280 nM
GST-ARF6Δ13 (domain or fragment, UniProt P62330 14-175, looked up) MRILMLGLDAAGKTTILYKLKLGQSVTTIPTVGFNVETVTYKNVKFNVWDVGGQDKIRPLWRHYYTGTQGLIFVVDCADRDRIDEARQELHRIINDREMRDAIILIFANKQDLPDAMKPHEIQEKLGLTRIRDRNWYVQPSCATSGDGLYEGLTWLTSNYKS | binds | 
